Assay results taken from patent US20180208648A1 (SCHOLAR ROCK, published 2018).
Residue numbers refer to the chain shown, from its start. Blank lines part the entries; values can stand above or below the binder they belong to.

Assays:
human proGDF11 [1] = molecular target: T1, human proGDF11 (human, UniProt O95390 25-407, biotinylated (NHS-PEG4-Biotin), site not stated); assay: cell-based or functional assay
T1 sequence: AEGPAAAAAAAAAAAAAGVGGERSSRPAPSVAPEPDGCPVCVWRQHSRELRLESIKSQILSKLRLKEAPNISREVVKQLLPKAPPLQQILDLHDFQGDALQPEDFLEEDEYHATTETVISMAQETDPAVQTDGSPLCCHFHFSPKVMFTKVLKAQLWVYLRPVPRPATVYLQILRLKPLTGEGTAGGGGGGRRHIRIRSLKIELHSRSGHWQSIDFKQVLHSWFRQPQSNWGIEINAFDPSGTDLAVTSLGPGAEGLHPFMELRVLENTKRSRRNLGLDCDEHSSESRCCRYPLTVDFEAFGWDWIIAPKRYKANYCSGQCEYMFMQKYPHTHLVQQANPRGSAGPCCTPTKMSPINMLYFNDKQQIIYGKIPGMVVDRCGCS

murine proGDF11 = molecular target: T2, murine proGDF11 (mouse, UniProt Q9Z1W4 25-405, biotinylated, site not stated); assay: cell-based or functional assay
T2 sequence: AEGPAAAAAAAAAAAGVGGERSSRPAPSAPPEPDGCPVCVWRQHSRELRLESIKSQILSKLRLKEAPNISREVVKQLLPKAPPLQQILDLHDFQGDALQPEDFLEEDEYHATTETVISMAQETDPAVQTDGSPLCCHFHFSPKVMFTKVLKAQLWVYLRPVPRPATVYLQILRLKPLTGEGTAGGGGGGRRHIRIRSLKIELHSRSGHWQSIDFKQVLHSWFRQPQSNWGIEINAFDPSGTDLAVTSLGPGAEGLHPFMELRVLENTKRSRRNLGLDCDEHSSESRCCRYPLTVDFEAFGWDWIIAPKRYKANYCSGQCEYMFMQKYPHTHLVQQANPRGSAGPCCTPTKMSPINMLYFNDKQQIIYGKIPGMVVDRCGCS

human proGDF11 ARM8 = molecular target: T3, human proGDF11 ARM8 (human, biotinylated, site not stated); assay: ELISA, biotinylated antigen on neutravidin plate
T3 construct: GDF11 having the GDF8 arm domain
T3 chain: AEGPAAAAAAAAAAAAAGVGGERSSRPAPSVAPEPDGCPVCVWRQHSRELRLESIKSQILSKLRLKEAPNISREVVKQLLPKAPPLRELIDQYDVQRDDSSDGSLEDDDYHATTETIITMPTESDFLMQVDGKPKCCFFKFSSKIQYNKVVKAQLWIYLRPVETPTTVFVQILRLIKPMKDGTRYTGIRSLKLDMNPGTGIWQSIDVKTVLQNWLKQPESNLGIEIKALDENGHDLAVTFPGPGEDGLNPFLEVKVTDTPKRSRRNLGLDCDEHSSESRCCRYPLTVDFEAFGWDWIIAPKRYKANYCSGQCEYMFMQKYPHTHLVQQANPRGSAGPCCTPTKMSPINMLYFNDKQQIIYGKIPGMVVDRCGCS
Source text: (§1) Candidate clones were converted to human IgG1 format. Full-length IgG antibodies were further characterized by ELISA for binding to the human and murine pro- and latent-forms of myostatin and GDF11. Antibodies were also screened for binding to the Myostatin prodomain (SEQ ID NO: 85), proTGFDβ1 (human and murine), the mature growth factor of Myostatin (SEQ ID NO: 89), the GDF11 mature growth factor (SEQ ID NO: 90), and proActivin A (SEQ ID NO: 84). Chimeric constructs which swapped portions of the prodomains of Myostatin and GDF11 were designed and produced. For example proGDF11 arm8 (SEQ ID NO: 112) refers to GDF11 having the GDF8 arm domain, and prodomain GDF11 arm8 (SEQ ID NO: 114) refers to the GDF11 prodomain having the GDF8 arm domain. These chimeric proteins were assayed for interaction with screening antibodies by ELISA and allowed for the assessment of binding of antibodies to the ARM or straight jacket portions of the GDF11 prodomain complex. Antibodies were selected based on their cross-reactivity with pro- and latent human and murine GDF11, with no interactions with GDF8, Activin, or TGFβ proteins. Activin A is a homodimer of inhibin-beta A subunits. For example, Inhibin-beta A can heterodimerize with other proteins to produce different Activin proteins.
(§2) Enzyme-linked immunosorbent assay (ELISA) analysis is carried out to assess antibody binding. 96-well ELISA assay plates are coated with neutravidin, a deglycosylated version of streptavidin with a more neutral pH. Target proteins are expressed with or without histidine (His) tags and subjected to biotinylation. Biotinylated target proteins are incubated with neutravidin-coated ELISA assay plates for two hours at room temperature and unbound proteins are removed by washing three times with wash buffer (either 25 mM Tris, 150 mM NaCl, 0.05% TWEEN®-20, or 20 mM Hepes pH 7.5, 500 mM NaCl, 0.05% TWEEN®-20). Primary antibodies being tested are added to each well and allowed to incubate at room temperature for 1 hour or more. Unbound antibody is then removed by washing three times with wash buffer. Secondary antibodies capable of binding to primary antibodies being tested and conjugated with detectable labels are then incubated in each well for 30 minutes at room temperature. Unbound secondary antibodies are removed by washing three times with wash buffer.

human mature GDF11 = molecular target: T4, human mature GDF11 (human, UniProt O95390 299-407, biotinylated, site not stated); assay: ELISA, biotinylated antigen on neutravidin plate
T4 construct: Growth factor domain; also called GDF11 mature growth factor
T4 sequence: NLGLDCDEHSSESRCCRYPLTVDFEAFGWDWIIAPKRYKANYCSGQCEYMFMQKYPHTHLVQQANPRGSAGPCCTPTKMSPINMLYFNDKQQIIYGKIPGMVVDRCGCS
Source text: as §1, §2

[2] = molecular target: T5, human prodomain GDF11 ARM8 (human, biotinylated, site not stated); assay: ELISA, biotinylated antigen on neutravidin plate
T5 construct: GDF11 prodomain having the GDF8 arm domain; also called human GDF11 ARM8 prodomain
T5 chain: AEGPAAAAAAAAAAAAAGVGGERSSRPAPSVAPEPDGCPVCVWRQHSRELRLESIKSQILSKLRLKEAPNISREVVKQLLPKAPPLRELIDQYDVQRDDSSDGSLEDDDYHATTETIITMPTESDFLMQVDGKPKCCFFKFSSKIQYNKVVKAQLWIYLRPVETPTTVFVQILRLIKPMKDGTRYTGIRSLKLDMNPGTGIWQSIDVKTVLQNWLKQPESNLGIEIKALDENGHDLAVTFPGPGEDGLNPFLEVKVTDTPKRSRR
Source text: as §1, §2

human proGDF11 [3] = molecular target: T1, human proGDF11; assay: BLI (ForteBio Octet)
human latent GDF11 = molecular target: T6, human latent GDF11 (human, UniProt O95390 25-407, biotinylated, site not stated); assay: BLI (ForteBio Octet)
T6 construct: also called hu latent GDF11
T6 sequence: T1 sequence

Human proGDF11 % Inhibition (proGDF11 activation assay, CAGA luciferase reporter in 293T cells) (human proGDF11 [1]): 100% | Murine proGDF11 % inhibition (proGDF11 activation assay, CAGA luciferase reporter in 293T cells) (murine proGDF11): 95% | binding result (human proGDF11 ARM8): no binding | binding result (human mature GDF11): no binding | binding result [2]: no binding | Kd (human proGDF11 [3]): 0.91 nM | Kd (human latent GDF11): 0.27 nM
B1: GDF11 Inh-2 (antibody, V domains shown)
VH: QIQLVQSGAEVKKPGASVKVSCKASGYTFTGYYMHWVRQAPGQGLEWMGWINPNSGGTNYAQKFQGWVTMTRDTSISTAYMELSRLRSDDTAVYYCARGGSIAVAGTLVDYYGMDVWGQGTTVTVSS
VL: DIQMTQSPSSLSASVGDRVTITCQASQDISNYLNWYQQKPGKAPKLLIYDASNLETGVPSRFSGSGSGTDFTLTISSLQPEDVATYYCQKYSTAPLTFGGGTKVEIKR
notes: also called Clone GDF11 Inh-2

Human proGDF11 % Inhibition (proGDF11 activation assay, CAGA luciferase reporter in 293T cells) (human proGDF11 [1]): 94% | Murine proGDF11 % inhibition (proGDF11 activation assay, CAGA luciferase reporter in 293T cells) (murine proGDF11): 87% | binding result (human proGDF11 ARM8): no binding | binding result (human mature GDF11): no binding | binding result [2]: no binding | Kd (human proGDF11 [3]): 1.08 nM | Kd (human latent GDF11): 0.31 nM
B2: GDF11 Inh-4 (antibody, V domains shown)
VH: QVQLVQSGAEVKKPGASVKVSCKASGYTFTSYGISWVRQAPGQGLEWMGWISAYNGNTNYAQKLQGRVTMTTDTSTSTAYMELRSLRSDDTAVYYCARTPPLWFGEYGAFDIWGQGAMVTVSS
VL: B1 VL with E81D, V83F, K90Q, Y91S, S92Y, A94T, L96I, G100Q, K103R, V104L
notes: also called Clone GDF11 Inh-4
